Measurements reported in article PMC9896810, “Crk proteins activate the Rap1 guanine nucleotide exchange factor C3G by segregated adaptor-dependent and -independent mechanisms” (Cell Communication and Signaling : CCS, 2023).
Where a chain is given by its changes, count along the chain named. Names and notes keep the numbering of the source. Blank lines part the entries; values can stand above or below the binder they belong to. No end group written: not given here. fluorescein = N-terminal fluorescein probe

Tests used:
[1] = molecular target: T1, C3G (full-length, residues 4-1077) (human, UniProt Q13905-1 4-1077); assay: ITC; C3G or pC3G in the cell titrated with the Crk protein, 25 °C, 300 mM NaCl, pH 7.5; global fit of three titrations with SEDPHAT, three symmetric binding sites, microscopic kd; conditions: both partners purified
T1 construct: also called C3G WT; RapGEF1; source: E. coli BL21 (DE3), purified (IMAC, TEV digestion, reversed IMAC, SEC); not shown: His, N-terminal, cleaved; Halo, N-terminal, cleaved
T1 sequence (looked up): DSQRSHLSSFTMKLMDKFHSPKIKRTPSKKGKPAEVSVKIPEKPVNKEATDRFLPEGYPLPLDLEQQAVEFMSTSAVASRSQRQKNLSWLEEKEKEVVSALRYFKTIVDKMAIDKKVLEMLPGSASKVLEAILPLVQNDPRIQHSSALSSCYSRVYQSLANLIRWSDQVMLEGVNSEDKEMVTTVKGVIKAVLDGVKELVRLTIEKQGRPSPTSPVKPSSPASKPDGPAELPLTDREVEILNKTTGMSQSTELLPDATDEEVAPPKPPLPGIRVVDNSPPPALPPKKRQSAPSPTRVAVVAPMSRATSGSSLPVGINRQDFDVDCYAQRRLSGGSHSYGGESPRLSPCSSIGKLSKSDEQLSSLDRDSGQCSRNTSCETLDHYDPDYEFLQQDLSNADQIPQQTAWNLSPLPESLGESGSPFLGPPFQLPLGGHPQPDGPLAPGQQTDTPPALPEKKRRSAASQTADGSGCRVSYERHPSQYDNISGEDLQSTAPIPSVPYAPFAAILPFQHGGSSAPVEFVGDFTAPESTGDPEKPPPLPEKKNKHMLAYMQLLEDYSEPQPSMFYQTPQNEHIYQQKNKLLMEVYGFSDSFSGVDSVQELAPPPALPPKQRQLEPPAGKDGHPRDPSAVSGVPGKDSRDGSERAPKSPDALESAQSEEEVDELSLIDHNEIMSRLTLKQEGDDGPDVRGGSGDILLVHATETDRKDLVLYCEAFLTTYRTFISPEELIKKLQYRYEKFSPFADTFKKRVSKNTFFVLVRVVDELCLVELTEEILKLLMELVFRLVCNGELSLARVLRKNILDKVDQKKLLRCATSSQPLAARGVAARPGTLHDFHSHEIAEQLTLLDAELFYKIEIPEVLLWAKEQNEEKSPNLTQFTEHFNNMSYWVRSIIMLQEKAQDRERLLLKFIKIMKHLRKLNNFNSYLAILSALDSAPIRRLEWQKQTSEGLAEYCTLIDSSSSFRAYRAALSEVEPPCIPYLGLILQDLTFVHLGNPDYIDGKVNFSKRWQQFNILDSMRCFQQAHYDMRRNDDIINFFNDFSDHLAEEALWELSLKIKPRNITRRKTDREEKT

[2] = molecular target: T2, C3G full-length wild type (human, isoform a, residues 4-1077) (human, UniProt Q13905-1 4-1077); assay: cell-based or functional assay
T2 sequence (looked up): T1 sequence (looked up)

[3] = molecular target: T3, Src-phosphorylated C3G (pC3G), wild type (human, UniProt Q13905-1 4-1077, phosphotyrosines (phosphorylated in vitro by Src; sites not stated)); assay: cell-based or functional assay
T3 sequence (looked up): T1 sequence (looked up)

[4] = molecular target: T4, CrkL, full-length (human) (human, UniProt P46109 1-303); assay: fluorescence polarisation; fluorescein peptides at 0.2 µM titrated with CrkL; 20 mM Tris-HCl, 150 mM NaCl, pH 7.5, 0.1 mg/ml BSA; 1:1 model; apparent kd; conditions: both partners purified
T4 construct: Monomer by sedimentation velocity and DLS (theoretical mass 33.7 kDa); Purification 'in a similar manner' as C3G would include TEV cleavage of the tag; also called Crk-like protein; wild type CrkL; source: E. coli BL21 (DE3), purified (His-tagged, purified in a similar manner as C3G)

[5] = molecular target: T5, CrkL (full-length) (human, UniProt P46109 1-303); assay: fluorescence polarisation; fluorescein-labelled peptide at 0.2 µM titrated with CrkL or CrkL W160S; 20 mM Tris-HCl, 150 mM NaCl, pH 7.5, 0.1 mg/ml BSA; 1:1 binding model; apparent kd; conditions: both partners purified
T5 construct: human CrkL, residues 1-303, in pETEV15b; also called Crk-like protein; source: E. coli BL21 (DE3), purified (IMAC, TEV digestion, SEC); not shown: His, N-terminal, cleaved
T5 sequence (P46109 whole entry, the tested form may be a part): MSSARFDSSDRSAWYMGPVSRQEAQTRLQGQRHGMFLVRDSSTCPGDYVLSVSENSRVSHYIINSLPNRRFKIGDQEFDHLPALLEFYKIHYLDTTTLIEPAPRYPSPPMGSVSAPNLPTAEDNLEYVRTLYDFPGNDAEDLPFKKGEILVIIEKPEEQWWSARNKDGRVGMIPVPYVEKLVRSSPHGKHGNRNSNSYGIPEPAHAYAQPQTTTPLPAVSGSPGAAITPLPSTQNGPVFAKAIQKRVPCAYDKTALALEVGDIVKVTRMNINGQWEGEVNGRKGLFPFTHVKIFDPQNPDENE

[6] = molecular target: T6, CrkL-W160S (human, UniProt P46109 1-303, W160S); assay: as above; conditions: both partners purified
T6 construct: human CrkL, residues 1-303, point mutant W160S, in pETEV15b; source: E. coli BL21 (DE3), purified (IMAC, TEV digestion, SEC); not shown: His, N-terminal, cleaved
T6 sequence (P46109 whole entry W160S, the tested form may be a part): as the sequence (P46109 whole entry, the tested form may be a part) above, with W160S counted along it

[7] = molecular target: T4, CrkL, full-length (human); assay: ITC; single-PRM mutants of C3G in the cell titrated with full-length CrkL or CrkL-SH3N; 25 °C; 1:1 model in SEDPHAT; N is the competent fraction of C3G; conditions: both partners purified

B1: CrkII (full-length) (natural protein, human, UniProt P46108-1 1-304, looked up)
chain: MAGNFDSEERSSWYWGRLSRQEAVALLQGQRHGVFLVRDSSTSPGDYVLSVSENSRVSHYIINSSGPRPPVPPSPAQPPPGVSPSRLRIGDQEFDSLPALLEFYKIHYLDTTTLIEPVSRSRQGSGVILRQEEAEYVRALFDFNGNDEEDLPFKKGDILRIRDKPEEQWWNAEDSEGKRGMIPVPYVEKYRPASASVSALIGGNQEGSHPQPLGGPEPGPYAQPSVNTPLPNLQNGPIYARVIQKRVPNAYDKTALALEVGELVKVTKINVSGQWEGECNGKRGHFPFTHVRLLDQQNPDEDFS
notes: human CrkII, residues 1-304, in pETEV15b; source: E. coli BL21 (DE3), purified (IMAC, TEV digestion, SEC); not shown: His, N-terminal, cleaved
Kd [1]: 2.7 µM

B2: CrkII (human) (natural protein, UniProt P46108-1 1-304, looked up)
chain: B1 chain
AC50 of the dose-response activation of the GEF activity of C3G (1 µM) on Rap1b:mant-dGDP [2]: 65.7 µM | kmax of the dose-response activation of the GEF activity of C3G (1 µM) on Rap1b:mant-dGDP [2]: 7200 M⁻¹ s⁻¹ | AC50 of the dose-response activation of the GEF activity of pC3G (0.2 µM) on Rap1b:mant-dGDP [3]: 2.6 µM | kmax of the dose-response activation of the GEF activity of pC3G (0.2 µM) on Rap1b:mant-dGDP [3]: 0.0223 s^-1 µM^-1

B6: P1 (Fluo-280-293) (peptide)
peptide: fluorescein-NGPPPALPPKKRQS
notes: P1 Pro-rich motif of human C3G, residues 280-293; also called P1 peptide of C3G; source: synthetic peptide (custom synthesized, Thermo Scientific)
Kd [5]: 1.4 µM | Kd [6]: ~490 µM

B7: P3 (Fluo-537-550) (peptide)
peptide: fluorescein-PEKPPPLPEKKNKH
notes: P3 Pro-rich motif of human C3G, residues 537-550; also called P3 peptide of C3G; source: synthetic peptide (custom synthesized, Thermo Scientific)
Kd [5]: 2.2 µM | Kd [6]: ~425 µM

B8: P2 (Fluo-450-463) (peptide)
peptide: fluorescein-TDTPPALPEKKRRS
notes: P2 Pro-rich motif of human C3G, residues 450-463; also called P2 peptide of C3G; source: synthetic peptide (custom synthesized, Thermo Scientific)
Kd [5]: 2.2 µM | Kd [6]: > 4000 µM

B9: P4 (Fluo-605-618) (peptide)
peptide: fluorescein-LAPPPALPPKQRQL
notes: P4 Pro-rich motif of human C3G, residues 605-618; also called P4 peptide of C3G; source: synthetic peptide (custom synthesized, Thermo Scientific)
Kd [5]: 3 µM | Kd [6]: ~415 µM

B12: C3G-PAAA (natural protein)
chain: DSQRSHLSSFTMKLMDKFHSPKIKRTPSKKGKPAEVSVKIPEKPVNKEATDRFLPEGYPLPLDLEQQAVEFMSTSAVASRSQRQKNLSWLEEKEKEVVSALRYFKTIVDKMAIDKKVLEMLPGSASKVLEAILPLVQNDPRIQHSSALSSCYSRVYQSLANLIRWSDQVMLEGVNSEDKEMVTTVKGVIKAVLDGVKELVRLTIEKQGRPSPTSPVKPSSPASKPDGPAELPLTDREVEILNKTTGMSQSTELLPDATDEEVAPPKPPLPGIRVVDNSPPPALPPKKRQSAPSPTRVAVVAPMSRATSGSSLPVGINRQDFDVDCYAQRRLSGGSHSYGGESPRLSPCSSIGKLSKSDEQLSSLDRDSGQCSRNTSCETLDHYDPDYEFLQQDLSNADQIPQQTAWNLSPLPESLGESGSPFLGPPFQLPLGGHPQPDGPLAPGQQTDTAAAAAEAKRRSAASQTADGSGCRVSYERHPSQYDNISGEDLQSTAPIPSVPYAPFAAILPFQHGGSSAPVEFVGDFTAPESTGDPEKAAPAAEAKNKHMLAYMQLLEDYSEPQPSMFYQTPQNEHIYQQKNKLLMEVYGFSDSFSGVDSVQELAPAAAAAPAQRQLEPPAGKDGHPRDPSAVSGVPGKDSRDGSERAPKSPDALESAQSEEEVDELSLIDHNEIMSRLTLKQEGDDGPDVRGGSGDILLVHATETDRKDLVLYCEAFLTTYRTFISPEELIKKLQYRYEKFSPFADTFKKRVSKNTFFVLVRVVDELCLVELTEEILKLLMELVFRLVCNGELSLARVLRKNILDKVDQKKLLRCATSSQPLAARGVAARPGTLHDFHSHEIAEQLTLLDAELFYKIEIPEVLLWAKEQNEEKSPNLTQFTEHFNNMSYWVRSIIMLQEKAQDRERLLLKFIKIMKHLRKLNNFNSYLAILSALDSAPIRRLEWQKQTSEGLAEYCTLIDSSSSFRAYRAALSEVEPPCIPYLGLILQDLTFVHLGNPDYIDGKVNFSKRWQQFNILDSMRCFQQAHYDMRRNDDIINFFNDFSDHLAEEALWELSLKIKPRNITRRKTDREEKT
Kd [7]: ~1 µM

B13: C3G-APAA (natural protein)
chain: B12 chain with P280A, P281A, L283A, P284A, K286A, A450P, A451P, A453L, A454P, A456K
Kd [7]: ~1 µM

Results, then the binder that gave them:

Kd [1]: 2.2 µM
B3: CrkL-SH2-SH3N (domain or fragment, human, UniProt P46109 1-182, looked up)
chain: MSSARFDSSDRSAWYMGPVSRQEAQTRLQGQRHGMFLVRDSSTCPGDYVLSVSENSRVSHYIINSLPNRRFKIGDQEFDHLPALLEFYKIHYLDTTTLIEPAPRYPSPPMGSVSAPNLPTAEDNLEYVRTLYDFPGNDAEDLPFKKGEILVIIEKPEEQWWSARNKDGRVGMIPVPYVEKLV
notes: human CrkL, SH2-SH3N, residues 1-182, in pETEV15b; also called CrkL-SH2N-SH3N; source: E. coli BL21 (DE3), purified (IMAC, TEV digestion, SEC); not shown: His, N-terminal, cleaved

AC50 of the dose-response activation of the GEF activity of C3G (1 µM) on Rap1b:mant-dGDP [2]: 15.8 µM | kmax of the dose-response activation of the GEF activity of C3G (1 µM) on Rap1b:mant-dGDP [2]: 8400 M⁻¹ s⁻¹ | AC50 of the dose-response activation of the GEF activity of pC3G (0.2 µM) on Rap1b:mant-dGDP [3]: 4.9 µM | kmax of the dose-response activation of the GEF activity of pC3G (0.2 µM) on Rap1b:mant-dGDP [3]: 0.0377 s^-1 µM^-1
B4: CrkL-SH2-SH3N (residues 1-182) (domain or fragment, human, UniProt P46109 1-182, looked up)
chain: B3 chain

binding result [4]: binds
B5: C3G P1 peptide (residues 280-293), fluorescein-labeled (peptide, UniProt Q13905-1 280-293, looked up)
peptide: fluorescein-NSPPPALPPKKRQS
notes: Pro-rich motif P1 of human C3G, residues 280-293; source: synthetic peptide (custom synthesized, Thermo Scientific)

Kd [1]: 1.1 µM
B10: CrkL-SH3N-SH3C (domain or fragment, human, UniProt P46109 125-303, looked up)
chain: LEYVRTLYDFPGNDAEDLPFKKGEILVIIEKPEEQWWSARNKDGRVGMIPVPYVEKLVRSSPHGKHGNRNSNSYGIPEPAHAYAQPQTTTPLPAVSGSPGAAITPLPSTQNGPVFAKAIQKRVPCAYDKTALALEVGDIVKVTRMNINGQWEGEVNGRKGLFPFTHVKIFDPQNPDENE
notes: human CrkL, SH3N-SH3C, residues 125-303, in pETEV15b; source: E. coli BL21 (DE3), purified (IMAC, TEV digestion, SEC); not shown: His, N-terminal, cleaved

AC50 of the dose-response activation of the GEF activity of C3G (1 µM) on Rap1b:mant-dGDP [2]: 19.8 µM | kmax of the dose-response activation of the GEF activity of C3G (1 µM) on Rap1b:mant-dGDP [2]: 12900 M⁻¹ s⁻¹ | AC50 of the dose-response activation of the GEF activity of pC3G (0.2 µM) on Rap1b:mant-dGDP [3]: 4.5 µM | kmax of the dose-response activation of the GEF activity of pC3G (0.2 µM) on Rap1b:mant-dGDP [3]: 0.0134 s^-1 µM^-1
B11: CrkL-SH3N-SH3C (residues 125-303) (domain or fragment, human, UniProt P46109 125-303, looked up)
chain: B10 chain
